Data published in patent US20020119139A1, “Cloning and recombinant expression of mammalian group XII secreted phospholipase A2” (priority 2000, published 2002).

Legend:
[1] = from reference (18); cited from earlier work
[2] = Initial rates of hydrolysis of large unilamellar vesicles, fatty acid binding protein assay; format: biochemical
Protocol: (§1) FIG. 3 represents the enzymatic properties of hGXII. […] Additional assay details have been reported elsewhere (18).
(§2) Large unilamellar vesicles (0.1 μm) of POPC, POPG, and POPS (31) were used to measure the initial rates of hydrolysis by hGXII in Hank's balanced salt solution with 1.2 mM CaCl2 and 0.9 mM MgCl2 using the fatty acid binding protein assay (17). The pH-rate profile and Ca^2+ dependency for the action of hGXII on POPG and POPC vesicles, respectively, were obtained as described (17).

[3] = sPLA2 activity assay using radiolabeled E. coli membranes; format: biochemical; conditions: recombinant protein from E. coli; also active on POPG, POPS and POPC vesicles
Source text: (§3) A mammalian expression vector containing the full-length hGXII cDNA was first used to transiently transfected HEK293 cells. […] Mass spectrometry analysis gave an experimental mass of 18,702.6±0.5 Da, which agrees well with the mass of 18,702.1 Da calculated from the sequence of mature hGXII shown in FIG. 1A.
The decrease as the pH is lowered presumably reflects, in part, the protonation of the active site histidine. As for all mammalian sPLA2s examined so far, the enzymatic activity of hGXII on phosphatidylglycerol vesicles is highest (FIG. 3C), which probably reflects the tighter binding of hGXII to anionic vesicles (37). Although hGXII hydrolyzes POPC at only ˜7% of the rate of POPG, this difference is small compared to the greater than 10^5-fold preference of hGIIA for POPG versus POPC (18).

[4] = pH-rate profile of hydrolysis of POPG vesicles; format: biochemical
Protocol: as §1, §2

[5] = Ca2+ dependency of the initial velocity of hydrolysis of POPC vesicles; format: biochemical; conditions: POPC vesicles with 1-palmitoyl-2-[8,9-3H]palmitoyl-sn-glycero-3-phosphocholine
Protocol: as §1, §2

[6] = sPLA2 activity secreted into culture medium of transiently transfected HEK293 cells; format: cell-based; conditions: 1-5 days after transfection
Source text: as §3

Molecule	preference for POPG versus POPC [1]	POPS as substrate ([2]; POPS vesicles)	specific enzymatic activity compared to other mammalian sPLA2s ([2]; compared to hGIB, hGIIA, hGV, hGX, comparable to mGIIE)	enzymatic activity on phosphatidylglycerol vesicles ([2]; compared with POPC and POPS vesicles)	rate of POPC hydrolysis as % of the rate of POPG ([2]; large unilamellar vesicles (0.1 μm), Hank's balanced salt solution, 1.2 mM CaCl2, 0.9 mM MgCl2) [%]	sPLA2 catalytic activity [3]	pH of maximal activity [4]	Kca (Ca2+ dependence of sPLA2 activity toward POPC vesicles) [5] [µM]	sPLA2 activity secreted into the culture medium versus cells transfected with vector lacking the insert [6]
hGIIA: human group IIA secreted phospholipase A2, used as literature comparator (protein, UniProt P14555 21-144, looked up) Phospholipase A2, membrane …: NLVNFHRMIKLTTGKEAALSYGFYGCHCGVGGRGSPKDATDRCCVTHDCCYKRLEKRGCGTKFLSYKFSNSGSRITCAKQDSCRSQLCECDKAAATCFARNKTTYNKKYQYYSNKHCRGSTPRC	greater than 10^5 fold								
hGXII: novel human secreted phospholipase A2 of group XII, mature protein of 167 amino acids (SEQ ID No 2), produced in E. coli (protein) MALLSRPALTLLLLLMAAVVRCQEQAQTTDWRATLKTIRNGVHKIDTYLNAALDLLGGEDGLCQYKCSDGSKPFPRYGYKPSPPNGCGSPLFGVHLNIGIPSLTKCCNQHDRCYETCGKSKNDCDEEFQYCLSKICRDVQKTLGLTQHVQACETTVELLFDSVIHLGCKPYLDSQRAACRCHYEEKTDL		good substrate	low	highest	~7	catalytically active	~8.0	30 ± 10	barely above
